Consider two molecules from publication PMC5680108 (Cellular microbiology, 2017).

Read-outs that look alike come from different tables or passages of the source.

For orientation: Kd means the constant that tells how readily two partners part at equilibrium.

Assay in all cases: ELISA
In general terms: ELISA stands for enzyme-linked immunosorbent assay.

The target in assay [1] is complement component C4b, human (human) (UniProt P0C0L4).
The target in assay [2] is T1, complement component C4b, human (human, UniProt P0C0L4 20-675; P0C0L4 757-1446; P0C0L4 1454-1744).
T1 sequence (P0C0L4 20-675, chain 1 of 3): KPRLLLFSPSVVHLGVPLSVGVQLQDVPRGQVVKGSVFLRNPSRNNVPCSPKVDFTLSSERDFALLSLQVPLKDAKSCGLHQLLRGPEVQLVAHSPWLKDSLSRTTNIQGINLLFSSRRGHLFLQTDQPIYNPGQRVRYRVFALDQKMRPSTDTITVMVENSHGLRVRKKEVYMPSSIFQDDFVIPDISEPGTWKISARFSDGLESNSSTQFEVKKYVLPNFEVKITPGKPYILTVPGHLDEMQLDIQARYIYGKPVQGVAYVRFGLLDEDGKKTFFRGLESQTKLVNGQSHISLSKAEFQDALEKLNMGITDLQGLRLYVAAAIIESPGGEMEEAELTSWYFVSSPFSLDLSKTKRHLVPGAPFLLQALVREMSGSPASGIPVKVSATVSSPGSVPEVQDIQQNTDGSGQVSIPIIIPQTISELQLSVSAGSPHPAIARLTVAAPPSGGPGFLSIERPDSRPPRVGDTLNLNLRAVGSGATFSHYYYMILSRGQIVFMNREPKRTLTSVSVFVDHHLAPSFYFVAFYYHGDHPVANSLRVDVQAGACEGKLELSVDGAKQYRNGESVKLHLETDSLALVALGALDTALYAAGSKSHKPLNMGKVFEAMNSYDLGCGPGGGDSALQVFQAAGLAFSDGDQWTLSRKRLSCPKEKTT
T1 sequence (P0C0L4 757-1446, chain 2 of 3): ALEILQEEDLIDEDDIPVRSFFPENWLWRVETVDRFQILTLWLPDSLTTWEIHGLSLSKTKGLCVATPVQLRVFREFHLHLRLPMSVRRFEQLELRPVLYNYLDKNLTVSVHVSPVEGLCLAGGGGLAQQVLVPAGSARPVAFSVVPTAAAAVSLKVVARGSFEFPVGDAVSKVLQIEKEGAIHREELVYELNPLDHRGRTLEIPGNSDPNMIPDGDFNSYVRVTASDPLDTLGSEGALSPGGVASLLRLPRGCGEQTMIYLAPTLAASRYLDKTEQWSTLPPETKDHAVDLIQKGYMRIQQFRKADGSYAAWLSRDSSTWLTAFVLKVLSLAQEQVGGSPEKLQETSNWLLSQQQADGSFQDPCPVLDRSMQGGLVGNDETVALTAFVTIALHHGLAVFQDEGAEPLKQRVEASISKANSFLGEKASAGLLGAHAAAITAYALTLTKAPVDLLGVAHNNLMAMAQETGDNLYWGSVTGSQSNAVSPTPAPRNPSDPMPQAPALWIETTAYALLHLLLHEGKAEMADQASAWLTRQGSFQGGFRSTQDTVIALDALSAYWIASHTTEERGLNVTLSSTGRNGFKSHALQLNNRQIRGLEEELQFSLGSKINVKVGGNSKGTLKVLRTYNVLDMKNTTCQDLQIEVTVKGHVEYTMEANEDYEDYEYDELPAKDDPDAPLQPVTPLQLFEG
T1 sequence (P0C0L4 1454-1744, chain 3 of 3): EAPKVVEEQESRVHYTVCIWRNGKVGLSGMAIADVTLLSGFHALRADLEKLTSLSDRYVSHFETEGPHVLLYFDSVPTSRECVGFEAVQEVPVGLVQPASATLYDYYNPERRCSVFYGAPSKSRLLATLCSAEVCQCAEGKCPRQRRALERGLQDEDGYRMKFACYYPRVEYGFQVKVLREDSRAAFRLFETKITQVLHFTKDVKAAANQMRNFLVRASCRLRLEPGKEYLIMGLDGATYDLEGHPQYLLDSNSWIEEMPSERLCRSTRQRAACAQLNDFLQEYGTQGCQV
In assay [3] the target is T1, complement component C4b, human. The source holds these as a separate data set.

complement component C4b, human (human), sequence (P0C0L4 20-675, chain 1 of 3): as the sequence (P0C0L4 20-675, chain 1 of 3) above
complement component C4b, human (human), sequence (P0C0L4 757-1446, chain 2 of 3): as the sequence (P0C0L4 757-1446, chain 2 of 3) above
complement component C4b, human (human), sequence (P0C0L4 1454-1744, chain 3 of 3): as the sequence (P0C0L4 1454-1744, chain 3 of 3) above

In turn, “GST-tagged OspC from B. burgdorferi strain N40 clone D10/E9 (natural protein)” registered a Kd in assay [1] of 233 nM.

B1: GST-OspCB31, GST fused to OspC from B. burgdorferi strain B31-A3 (natural protein)
chain: CNNSGKDGNTSANSADESVKGPNLTEISKKITDSNAVLLAVKEVEALLSSIDEIAAKAIGKKIHQNNGLDTENNHNGSLLAGAYAISTLIKQKLDGLKNEGLKEKIDAAKKCSETFTNKLKEKHTDLGKEGVTDADAKEAILKTNGTKTKGAEELGKLFESVEVLSKAAKEMLANSVKELTSPVVAESPKKP
B1: the Kd is roughly 414 nM in assay [2] and 476 nM in assay [3].
